The assay addresses T1, CD3 epsilon homodimer protein (UniProt P07766 23-126).
T1 construct: also called CD3 (CD3 epsilon)
Briefly: SPR Biacore T200, CD3 epsilon homodimer on chip, antibody as analyte.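 Also: homodimer amine-coupled to a CM4 sensor chip, run at 25 °C in HBS-EP+ buffer, with kinetic parameters derived in Biacore T200 Evaluation Software.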

Experimental findings from patent publication US20240270846A1 (published 2024) are described below.

T1 sequence (P07766 23-126): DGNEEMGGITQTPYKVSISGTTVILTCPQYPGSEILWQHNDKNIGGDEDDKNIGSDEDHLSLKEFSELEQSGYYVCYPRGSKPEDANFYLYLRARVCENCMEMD

B1: CE115HA000 H chain altered form N31F (antibody, human IgG1, kappa, L234A L235A, N297A, name in Kabat numbering)
heavy: QVQLVESGGGVVQPGRSLRLSCAASGFTFSFAWMHWVRQAPGKGLEWVAQIKAKSNNYATYYAESVKGRFTISRDDSKNSLYLQMNSLKTEDTAVYYCRYVHYGAYYGVDAWGQGTTVTVSSASTKGPSVFPLAPSSKSTSGGTAALGCLVKDYFPEPVTVSWNSGALTSGVHTFPAVLQSSGLYSLSSVVTVPSSSLGTQTYICNVNHKPSNTKVDKKVEPKSCDKTHTCPPCPAPEAAGGPSVFLFPPKPKDTLMISRTPEVTCVVVDVSHEDPEVKFNWYVDGVEVHNAKTKPREEQYASTYRVVSVLTVLHQDWLNGKEYKCKVSNKALPAPIEKTISKAKGQPREPQVYTLPPSRCELTKNQVSLSCAVKGFYPSDIAVEWESNGQPENNYKTTPPVLDSDGSFFLVSKLTVDKSRWQQGNVFSCSVMHEALHNHYTQKSLSLSPDYKDDDDK
chain: EPKSSDKTHTCPPCPAPELLGGPSVFLFPPKPKDTLMISRTPEVTCVVVDVSHEDPEVKFNWYVDGVEVHNAKTKPREEQYNSTYRVVSVLTVLHQDWLNGKEYKCKVSNKALPAPIEKTISKAKGQPREPQVCTLPPSRDELTKNQVSLWCLVKGFYPSDIAVEWESNGQPENNYKTTPPVLDSDGSFFLYSKLTVDKSRWQQGNVFSCSVMHEALHNRYTQKSLSLSP
light: DIVMTQSPLSLPVTPGEPASISCRSSQSLVHSNRNTYLHWYQQKPGQAPRLLIYKVSNRFSGVPDRFSGSGSGTDFTLKISRVEAEDVGVYYCGQGTQVPYTFGQGTKLEIKRTVAAPSVFIFPPSDEQLKSGTASVVCLLNNFYPREAKVQWKVDNALQSGNSQESVTEQDSKDSTYSLSSTLTLSKADYEKHKVYACEVTHQGLSSPVTKSFNRGEC
notes: one-arm antibody
For B1, the “KD ratio (KD of CE115HA000 / KD of altered form)” value is 1.24.

B2: CE115HA000 H chain altered form N31G (antibody, human IgG1, kappa, L234A L235A, N297A, name in Kabat numbering)
heavy: QVQLVESGGGVVQPGRSLRLSCAASGFTFSGAWMHWVRQAPGKGLEWVAQIKAKSNNYATYYAESVKGRFTISRDDSKNSLYLQMNSLKTEDTAVYYCRYVHYGAYYGVDAWGQGTTVTVSSASTKGPSVFPLAPSSKSTSGGTAALGCLVKDYFPEPVTVSWNSGALTSGVHTFPAVLQSSGLYSLSSVVTVPSSSLGTQTYICNVNHKPSNTKVDKKVEPKSCDKTHTCPPCPAPEAAGGPSVFLFPPKPKDTLMISRTPEVTCVVVDVSHEDPEVKFNWYVDGVEVHNAKTKPREEQYASTYRVVSVLTVLHQDWLNGKEYKCKVSNKALPAPIEKTISKAKGQPREPQVYTLPPSRCELTKNQVSLSCAVKGFYPSDIAVEWESNGQPENNYKTTPPVLDSDGSFFLVSKLTVDKSRWQQGNVFSCSVMHEALHNHYTQKSLSLSPDYKDDDDK
chain: EPKSSDKTHTCPPCPAPELLGGPSVFLFPPKPKDTLMISRTPEVTCVVVDVSHEDPEVKFNWYVDGVEVHNAKTKPREEQYNSTYRVVSVLTVLHQDWLNGKEYKCKVSNKALPAPIEKTISKAKGQPREPQVCTLPPSRDELTKNQVSLWCLVKGFYPSDIAVEWESNGQPENNYKTTPPVLDSDGSFFLYSKLTVDKSRWQQGNVFSCSVMHEALHNRYTQKSLSLSP
light: DIVMTQSPLSLPVTPGEPASISCRSSQSLVHSNRNTYLHWYQQKPGQAPRLLIYKVSNRFSGVPDRFSGSGSGTDFTLKISRVEAEDVGVYYCGQGTQVPYTFGQGTKLEIKRTVAAPSVFIFPPSDEQLKSGTASVVCLLNNFYPREAKVQWKVDNALQSGNSQESVTEQDSKDSTYSLSSTLTLSKADYEKHKVYACEVTHQGLSSPVTKSFNRGEC
notes: one-arm antibody
With B2, the “KD ratio (KD of CE115HA000 / KD of altered form)” value turned out to be 1.37.
